Results as given in article PMC4265764 (2014).

Experiments:
superfolder GFP (sfGFP) = superfolder GFP (sfGFP) (UniProt P42212 = GFP, biotin (in-vivo biotinylated, in the ELISA)); assay: FP
[1] = target: T1, Green Fluorescent Protein (GFP) (UniProt P42212 1-238 = GFP, biotin on the avi-tag (in-vivo biotinylation)); assay: FP
[2] = target: T1, Green Fluorescent Protein (GFP); assay: SPR
[3] = target: T1, Green Fluorescent Protein (GFP); assay: SPR; remark: listed apart in the source
[4] = target: T1, Green Fluorescent Protein (GFP); assay: FP; PBS with 0.03% BSA
[5] = target: T1, Green Fluorescent Protein (GFP); assay: FP; PBS with 0.005% Tween-20

Binder	Kd (superfolder GFP (sfGFP))	Kd [1]	koff [2]	Kd [3]	Kd [4]	Kd [5]
DARPin 3G61 (designed binder) MRGSHHHHHHGSDLGKKLLEAARAGQDDEVRILMANGADVNALDEVGWTPLHLAAWGHLEIVEVLLKNGADVNAADIDGYTPLHLAAFSGHLEIVEVLLKYGADVNADDQAGFTPLHLAAIFGHLEIVEVLLKNGADVNAQDKFGKTAFDISIDNGNEDLAEILQKLN	96 nM		0.000797 s⁻¹	1.1 nM	76 nM	< 5 nM
DARPin 3G86.1 (designed binder) MRGSHHHHHHGSDLGKKLLEAARAGQDDEVRILMANGADVNALDRFGLTPLHLAAQRGHLEIVEVLLKCGADVNAADLWGQTPLHLAATAGHLEIVEVLLKNGADVNARDNIGHTPLHLAAWAGHLEIVEVLLKHGADVNAQDKFGKTAFDISIDNGNEDLAEILQKLN	29 nM	< 5 nM	0.000369 s⁻¹	0.32 nM		

Further binders by falling Kd (superfolder GFP (sfGFP)), results first:

Kd (superfolder GFP (sfGFP))	Kd [1]	koff [2]	Kd [3]	Kd [4]	Kd [5]	Binder
22 nM	< 5 nM	0.000228 s⁻¹	0.36 nM			DARPin 3G124 (designed binder) DLGKKLLEAARAGQDDEVRILMANGADVNAADDVGVTPLHLAAQRGHLEIVEVLLKYGADVNAADLWGQTPLHLAATAGHLEIVEVLLKNGADVNARDNIGHTPLHLAAWAGHLEIVEVLLKYGADVNAQDKFGKTAFDISIDNGNEDLAEILQ
5.3 nM	< 5 nM	0.00022 s⁻¹				DARPin 3G86.32 (designed binder) MRGSHHHHHHGSDLGKKLLEAARAGQDDEVRILMANGADVNALDRFGLTPLHLAAQRGHLEIVEVLLKCGADVNAADLWGQTPLHLAATAGHLEIVEVLLKYGADVNALDLIGKTPLHLTAIDGHLEIVEVLLKHGADVNAQDKFGKTAFDISIDNGNEDLAEILQKLN
